{"source": "the supplement of paper PMC12667976", "parents": {"B1": {"name": "library; numbered along this chain (parent)", "chain": "MATDAALRRLLRLHRTEIAVAVDSAFPLLHALADHDVVPEDKFQETLHLKEKEGCPQAFHALLSWLLTQDSTAILDFWRVLFKDYNLERYGRLQPILDSFPKDVDLSQPRKGRKPPAVPKALVPPPRLPTKRKASEEARAAAPAALTPRGTASPGSQLKAKPPKKPESSAEQQRLPLGNGIQTMSASVQRAVAMSSGDVPGARGAVEGILIQQVFESGGSKKCIQVGGEFYTPSKFEDSGSGKNKARSSSGPKPLVRAKGAQGAAPGGGEARLGQQGSVPAPLALPSDPQLHQKNEDECAVCRDGGELICCDGCPRAFHLACLSPPLREIPSGTWRCSSCLQATVQEVQPRAEEPRPQEPPVETPLPPGLRSAGEEVRGPPGEPLAGMDTTLVYKHLPAPPSAAPLPGLDSSALHPLLCVGPEGQQNLAPGARCGVCGDGTDVLRCTHCAAAFHWRCHFPAGTSRPGTGLRCRSCSGDVTPAPVEGVLAPSPARLAPGPAKDDTASHEPALHRDDLESLLSEHTFDGILQWAIQSMARPAAPFPS"}}, "note": "± gives the standard error."}
{"variants_of": "B1", "assay": "AIRE transcriptional activation functional score (insulin promoter-GFP; nonsense median 0, synonymous median 1) (normalised score); higher = higher AIRE activity (more reporter activation)", "conditions": "with insulin promoter-GFP reporter in HEK293", "experimental": "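Deep mutational scan of full-length human AIRE (codon-optimized cDNA, DT-POPCode NNN libraries over three regions) integrated at a Bxb1 landing pad in HEK293 cells carrying an insulin core promoter-GFP reporter at a Flp-In site. Cells were sorted for the top 10% GFP about 14 days after transfection. Variant frequency log-ratios (select vs non-select, TileSeq) were rescaled so that the nonsense median is 0 and the synonymous median is 1, then averaged over biological replicates.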"}
{"variant": "R513I", "AIRE transcriptional activation functional score": "1.44 ± 0.29"}
{"variant": "I330R", "AIRE transcriptional activation functional score": "1.07 ± 0.37"}
{"variant": "D312V", "AIRE transcriptional activation functional score": "0.485 ± 0.17"}
{"variant": "V118E", "AIRE transcriptional activation functional score": "1.08 ± 0.27"}
{"variant": "V118C", "AIRE transcriptional activation functional score": "1.25 ± 0.13"}
{"variant": "P166Y", "AIRE transcriptional activation functional score": "1.19 ± 0.33"}
{"variant": "A537R", "AIRE transcriptional activation functional score": "-0.0391 ± 0.22"}
{"variant": "I211S", "AIRE transcriptional activation functional score": "0.773 ± 0.41"}
{"variant": "T441C", "AIRE transcriptional activation functional score": "1.25 ± 0.14"}
{"variant": "G219E", "AIRE transcriptional activation functional score": "0.654 ± 0.16"}
{"variant": "P56Q", "AIRE transcriptional activation functional score": "0.746 ± 0.56"}
{"variant": "L63R", "AIRE transcriptional activation functional score": "-0.0432 ± 0.48"}
{"variant": "L63T", "AIRE transcriptional activation functional score": "-0.37 ± 0.2"}
{"variant": "A493I", "AIRE transcriptional activation functional score": "1.04 ± 0.29"}
{"variant": "A493D", "AIRE transcriptional activation functional score": "0.802 ± 0.12"}
{"variant": "K294R", "AIRE transcriptional activation functional score": "1.17 ± 0.3"}
{"variant": "D76F", "AIRE transcriptional activation functional score": "-0.202 ± 0.69"}
{"variant": "D76L", "AIRE transcriptional activation functional score": "0.535 ± 0.84"}
{"variant": "D76M", "AIRE transcriptional activation functional score": "2.3 ± 0.11"}
{"variant": "S156R", "AIRE transcriptional activation functional score": "0.968 ± 0.47"}
{"variant": "A404I", "AIRE transcriptional activation functional score": "0.94 ± 0.23"}
{"variant": "A404R", "AIRE transcriptional activation functional score": "1.01 ± 0.27"}
{"variant": "A404Q", "AIRE transcriptional activation functional score": "0.81 ± 0.25"}
{"variant": "A404S", "AIRE transcriptional activation functional score": "1.02 ± 0.27"}
{"variant": "P460R", "AIRE transcriptional activation functional score": "0.824 ± 0.35"}
{"variant": "S535C", "AIRE transcriptional activation functional score": "0.706 ± 0.051"}
{"variant": "T130P", "AIRE transcriptional activation functional score": "1.36 ± 0.33"}
{"variant": "T130S", "AIRE transcriptional activation functional score": "1.36 ± 0.41"}
{"variant": "G421F", "AIRE transcriptional activation functional score": "1.33 ± 0.074"}
{"variant": "F318Q", "AIRE transcriptional activation functional score": "1.31 ± 0.16"}
{"variant": "F318V", "AIRE transcriptional activation functional score": "0.874 ± 0.24"}
{"variant": "S372F", "AIRE transcriptional activation functional score": "1.02 ± 0.32"}
{"variant": "R139L", "AIRE transcriptional activation functional score": "1.19 ± 0.29"}
{"variant": "R139W", "AIRE transcriptional activation functional score": "1.54 ± 0.1"}
{"variant": "R139S", "AIRE transcriptional activation functional score": "0.893 ± 0.49"}
{"variant": "P483A", "AIRE transcriptional activation functional score": "0.722 ± 0.33"}
{"variant": "S411I", "AIRE transcriptional activation functional score": "1.3 ± 0.15"}
{"variant": "S411C", "AIRE transcriptional activation functional score": "1.45 ± 0.089"}
{"variant": "D502A", "AIRE transcriptional activation functional score": "0.926 ± 0.15"}
{"variant": "D502F", "AIRE transcriptional activation functional score": "1.35 ± 0.041"}
{"variant": "D502C", "AIRE transcriptional activation functional score": "0.85 ± 0.27"}
{"variant": "Y231Q", "AIRE transcriptional activation functional score": "0.625 ± 0.18"}
{"variant": "R456Y", "AIRE transcriptional activation functional score": "1.51 ± 0.33"}
{"variant": "E508Y", "AIRE transcriptional activation functional score": "0.92 ± 0.16"}
{"variant": "L406Y", "AIRE transcriptional activation functional score": "1.02 ± 0.14"}
{"variant": "D23Y", "AIRE transcriptional activation functional score": "-0.199 ± 0.28"}
{"variant": "S338D", "AIRE transcriptional activation functional score": "1.08 ± 0.17"}
{"variant": "D389P", "AIRE transcriptional activation functional score": "0.951 ± 0.45"}
{"variant": "A386T", "AIRE transcriptional activation functional score": "1.02 ± 0.21"}
{"variant": "R9L", "AIRE transcriptional activation functional score": "0.268 ± 0.39"}
{"variant": "V22W", "AIRE transcriptional activation functional score": "-0.0929 ± 0.089"}
{"variant": "H415S", "AIRE transcriptional activation functional score": "0.782 ± 0.24"}
{"variant": "H415G", "AIRE transcriptional activation functional score": "0.474 ± 0.39"}
{"variant": "A21L", "AIRE transcriptional activation functional score": "-0.19 ± 0.3"}
{"variant": "V393Y", "AIRE transcriptional activation functional score": "0.561 ± 0.21"}
{"variant": "S287A", "AIRE transcriptional activation functional score": "1.17 ± 0.32"}
{"variant": "G467M", "AIRE transcriptional activation functional score": "0.866 ± 0.058"}
{"variant": "G467F", "AIRE transcriptional activation functional score": "1.29 ± 0.12"}
{"variant": "Q275S", "AIRE transcriptional activation functional score": "0.826 ± 0.52"}
{"variant": "Q57M", "AIRE transcriptional activation functional score": "-0.643 ± 0.11"}
{"variant": "E296K", "AIRE transcriptional activation functional score": "0.642 ± 0.15"}
{"variant": "K165N", "AIRE transcriptional activation functional score": "0.909 ± 0.42"}
{"variant": "K165G", "AIRE transcriptional activation functional score": "0.47 ± 1"}
{"variant": "P115T", "AIRE transcriptional activation functional score": "0.525 ± 0.52"}
{"variant": "A25N", "AIRE transcriptional activation functional score": "-1.11 ± 0.26"}
{"variant": "A25S", "AIRE transcriptional activation functional score": "0.301 ± 0.39"}
{"variant": "A25W", "AIRE transcriptional activation functional score": "-0.59 ± 0.39"}
{"variant": "A25K", "AIRE transcriptional activation functional score": "0.411 ± 0.087"}
{"variant": "K164N", "AIRE transcriptional activation functional score": "1.52 ± 0.46"}
{"variant": "K164A", "AIRE transcriptional activation functional score": "1.17 ± 0.25"}
{"variant": "Q425G", "AIRE transcriptional activation functional score": "1.04 ± 0.18"}
{"variant": "H448P", "AIRE transcriptional activation functional score": "0.0826 ± 0.074"}
{"variant": "A134G", "AIRE transcriptional activation functional score": "-0.0179 ± 0.3"}
{"variant": "K131C", "AIRE transcriptional activation functional score": "-0.0234 ± 0.18"}
{"variant": "K131I", "AIRE transcriptional activation functional score": "-0.103 ± 0.13"}
{"variant": "K259Q", "AIRE transcriptional activation functional score": "0.922 ± 0.061"}
{"variant": "K259E", "AIRE transcriptional activation functional score": "0.714 ± 0.14"}
{"variant": "A58E", "AIRE transcriptional activation functional score": "-0.0545 ± 0.48"}
{"variant": "A58T", "AIRE transcriptional activation functional score": "0.166 ± 0.52"}
{"variant": "A373D", "AIRE transcriptional activation functional score": "1.02 ± 0.22"}
{"variant": "P27V", "AIRE transcriptional activation functional score": "-0.229 ± 0.27"}
{"variant": "P27G", "AIRE transcriptional activation functional score": "0.0337 ± 0.67"}
{"variant": "A33Y", "AIRE transcriptional activation functional score": "0.238 ± 0.87"}
